Test results taken from patent US20050064507.

How the values were obtained:
[1] = biological target: T1, Myt1 kinase peptide PPRTPGWHQLQPRRVSFRGE (SEQ ID NO:163) (not fully specified)
T1 chain: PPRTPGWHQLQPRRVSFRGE

[2] = biological target: T2, MLK3 peptide HVRRRRGTFKRSKLRARD (SEQ ID NO:76) (not fully specified)
T2 chain: HVRRRRGTFKRSKLRARD

[3] = biological target: T3, NIK peptide WKGKRRSKARKKRK (SEQ ID NO:131) (not fully specified)
T3 chain: WKGKRRSKARKKRK

[4] = biological target: T4, PLEC1 peptide KRERKTSSKSSVRKRR (SEQ ID NO:81) (not fully specified)
T4 chain: KRERKTSSKSSVRKRR

[5] = biological target: T5, cytohesin-2 peptide VDPFYEMLAARKKRISVKKK (SEQ ID NO:150) (not fully specified)
T5 chain: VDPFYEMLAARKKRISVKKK

[6] = biological target: T6, PSCDBP peptide LSSMFGTLPRKSRKGSVRKQ (SEQ ID NO:144) (not fully specified)
T6 chain: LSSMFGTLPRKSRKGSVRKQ

[7] = biological target: T7, LIMK2 peptide KATTKKRTLRKNDRK (SEQ ID NO:108) (not fully specified)
T7 chain: KATTKKRTLRKNDRK

[8] = biological target: T8, PRKCA peptide RFARKGSLRQKNV (SEQ ID NO:85) (not fully specified)
T8 chain: RFARKGSLRQKNV

[9] = biological target: T9, LIMK-2 peptide LRRRSLRRSNSISKSPGP (SEQ ID NO:121) (not fully specified)
T9 chain: LRRRSLRRSNSISKSPGP

[10] = biological target: T10, phospholemman peptide EEGTFRSSIRRLSTRRR (SEQ ID NO:116) (not fully specified)
T10 chain: EEGTFRSSIRRLSTRRR

[11] = biological target: T11, DGKI peptide NRKKKRTSFKRKA (SEQ ID NO:79) (not fully specified)
T11 chain: NRKKKRTSFKRKA

[12] = biological target: T12, cyclophilin G peptide TEEKSKKRKKKHRKNSRKHK (SEQ ID NO:165) (not fully specified)
T12 chain: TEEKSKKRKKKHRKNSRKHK

[13] = biological target: T13, MAP3K14 peptide WKGKRRSKARKKRK (SEQ ID NO:100) (not fully specified)
T13 chain: WKGKRRSKARKKRK

[14] = biological target: T14, MacMARCKS peptide KKKFSFKKPFKLSGLSFKRN (SEQ ID NO:162) (not fully specified)
T14 chain: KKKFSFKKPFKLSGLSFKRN

[15] = biological target: T15, ADD2 peptide KKKFRTPSFLKKSKK (SEQ ID NO:95) (not fully specified)
T15 chain: KKKFRTPSFLKKSKK

[16] = biological target: T16, gravin peptide KKFFTQGWAGWRKKTSFRKP (SEQ ID NO:154) (not fully specified)
T16 chain: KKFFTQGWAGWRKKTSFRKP

[17] = biological target: T17, SYTL4 peptide RQGKRKTSIKRDTVNPL (SEQ ID NO:87) (not fully specified)
T17 chain: RQGKRKTSIKRDTVNPL

[18] = biological target: T18, ERN1 peptide ISDFGLAKKLAVGRHSFSRR (SEQ ID NO:145) (not fully specified)
T18 chain: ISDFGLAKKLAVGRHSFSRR

[19] = biological target: T19, dag kinase iota peptide NRKKKRTSFKRKA (SEQ ID NO:115) (not fully specified)
T19 chain: NRKKKRTSFKRKA

[20] = biological target: T20, PSCDBP peptide FLRRSSSRRNRS (SEQ ID NO:180) (not fully specified)
T20 chain: FLRRSSSRRNRS

[21] = biological target: T21, PLD1 peptide KYKAFIRIPIPTRRHTFRRQ (SEQ ID NO:161) (not fully specified)
T21 chain: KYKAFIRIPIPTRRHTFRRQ

[22] = biological target: T22, MARCKS peptide KKKKKRFSFKKSFKL (SEQ ID NO:80) (not fully specified)
T22 chain: KKKKKRFSFKKSFKL

[23] = biological target: T23, titin peptide PFEVVWYKDKRQLRSSKKYK (SEQ ID NO:160) (not fully specified)
T23 chain: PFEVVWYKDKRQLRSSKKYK

[24] = biological target: T24, … peptide KKPFKLSGLSFKRNRKE (SEQ ID NO:88) (not fully specified)
T24 chain: KKPFKLSGLSFKRNRKE

[25] = biological target: T25, WNK1 peptide RRRRHTMDKDSR (SEQ ID NO:190) (not fully specified)
T25 chain: RRRRHTMDKDSR

[26] = biological target: T26, ARHGAP4 peptide AGPLRKSSLKKGGRL (SEQ ID NO:98) (not fully specified)
T26 chain: AGPLRKSSLKKGGRL

[27] = biological target: T27, CREB1 peptide EILSRRPSYRKILND (SEQ ID NO:106) (not fully specified)
T27 chain: EILSRRPSYRKILND

[28] = biological target: T28, PSCD2 peptide AARKKRISVKKKQEQ (SEQ ID NO:93) (not fully specified)
T28 chain: AARKKRISVKKKQEQ

[29] = biological target: T29, MARCKS peptide PSPSNETPKKKKKRFSFKKS (SEQ ID NO:157) (not fully specified)
T29 chain: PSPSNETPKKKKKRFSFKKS

[30] = biological target: T30, ribosomal protein S6 peptide AKRRRLSSLRASTSK (SEQ ID NO:120) (not fully specified)
T30 chain: AKRRRLSSLRASTSK

[31] = biological target: T31, DAP-kinase 1 peptide KKRRTKSSRRGV (SEQ ID NO:175) (not fully specified)
T31 chain: KKRRTKSSRRGV

[32] = biological target: T32, pleckstrin 1 peptide KAIKAIEGGQKFARKSTRRS (SEQ ID NO:126) (not fully specified)
T32 chain: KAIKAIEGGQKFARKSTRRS

B1: PKC-theta (protein)
chain: MSPFLRIGLSNFDCGSCQSCQGEAVNPYCAVLVKEYVESENGQMYIQKKPTMYPPWDSTFDAHINKGRVMQIIVKGKNVDLISETTVELYSLAERCRKNNGKTEIWLELKPQGRMLMNARYFLEMSDTKDMNEFETEGFFALHQRRGAIKQAKVHHVKCHEFTATFFPQPTFCSVCHEFVWGLNKQGYQCRQCNAAIHKKCIDKVIAKCTGSAINSRETMFHKERFKIDMPHRFKVYNYKSPTFCEHCGTLLWGLARQGLKCDACGMNVHHRCQTKVANLCGINQKLMAEALAMIESTQQARCLRDTEQIFREGPVEIGLPCSIKNEARPPCLPTPGKREPQGISWESPLDEVDKMCHLPEPELNKERPSLQIKLKIEDFILHKMLGKGSFGKVFLAEFKKTNQFFAIKALKKDVVLMDDDVECTMVEKRVLSLAWEHPFLTHMFCTFQTKENLFFVMEYLNGGDLMYHIQSCHKFDLSRATFYAAEIILGLQFLHSKGIVYRDLKLDNILLDKDGHIKIADFGMCKENMLGDAKTNTFCGTPDYIAPEILLGQKYNHSVDWWSFGVLLYEMLIGQSPFHGQDEEELFHSIRMDNPFYPRWLEKEAKDLLVKLFVREPEKRLGVRGDIRQHPLFREINWEELERKEIDPPFRPKVKSPFDCSNFDKEFLNEKPRLSFADRALINSMDQNMFRNFSFMNPGMERLIS
- in vitro phosphorylation, 1 uM peptide (% of best substrate) [1]: 14
- in vitro phosphorylation, 10 uM peptide (% of best substrate) [1]: 11
- Peptide phosphorylation by PKC-theta [2]: 99
- in vitro phosphorylation (% of best substrate) [2]: 100
- in vitro phosphorylation, 1 uM peptide (% of best substrate) [3]: 53
- in vitro phosphorylation, 10 uM peptide (% of best substrate) [3]: 35
- in vitro phosphorylation (% of best substrate) [4]: 46
- in vitro phosphorylation, 1 uM peptide (% of best substrate) [5]: 35
- in vitro phosphorylation, 10 uM peptide (% of best substrate) [5]: 35
- in vitro phosphorylation, 1 uM peptide (% of best substrate) [6]: 35
- in vitro phosphorylation, 10 uM peptide (% of best substrate) [6]: 22
- in vitro phosphorylation (% of best substrate) [7]: 32
- in vitro phosphorylation (% of best substrate) [8]: 46
- Peptide phosphorylation by PKC-theta [9]: 57
- in vitro phosphorylation, 1 uM peptide (% of best substrate) [9]: 51
- in vitro phosphorylation, 10 uM peptide (% of best substrate) [9]: 57
- in vitro phosphorylation, 1 uM peptide (% of best substrate) [10]: 83
- in vitro phosphorylation, 10 uM peptide (% of best substrate) [10]: 78
- in vitro phosphorylation (% of best substrate) [11]: 33
- in vitro phosphorylation, 1 uM peptide (% of best substrate) [12]: 16
- in vitro phosphorylation, 10 uM peptide (% of best substrate) [12]: 14
- in vitro phosphorylation (% of best substrate) [13]: 56
- in vitro phosphorylation, 1 uM peptide (% of best substrate) [14]: 14
- in vitro phosphorylation, 10 uM peptide (% of best substrate) [14]: 13
- in vitro phosphorylation (% of best substrate) [15]: 42
- in vitro phosphorylation, 1 uM peptide (% of best substrate) [16]: 34
- in vitro phosphorylation, 10 uM peptide (% of best substrate) [16]: 21
- in vitro phosphorylation (% of best substrate) [17]: 65
- in vitro phosphorylation, 1 uM peptide (% of best substrate) [18]: 27
- in vitro phosphorylation, 10 uM peptide (% of best substrate) [18]: 25
- in vitro phosphorylation, 1 uM peptide (% of best substrate) [19]: 89
- in vitro phosphorylation, 10 uM peptide (% of best substrate) [19]: 77
- in vitro phosphorylation (% of best substrate) [20]: 65
- in vitro phosphorylation, 1 uM peptide (% of best substrate) [21]: 19
- in vitro phosphorylation, 10 uM peptide (% of best substrate) [21]: 23
- in vitro phosphorylation (% of best substrate) [22]: 63
- in vitro phosphorylation, 1 uM peptide (% of best substrate) [23]: 19
- in vitro phosphorylation, 10 uM peptide (% of best substrate) [23]: 25
- in vitro phosphorylation (% of best substrate) [24]: 38
- in vitro phosphorylation (% of best substrate) [25]: 40
- in vitro phosphorylation (% of best substrate) [26]: 22
- in vitro phosphorylation (% of best substrate) [27]: 19
- in vitro phosphorylation (% of best substrate) [28]: 40
- in vitro phosphorylation, 1 uM peptide (% of best substrate) [29]: 20
- in vitro phosphorylation, 10 uM peptide (% of best substrate) [29]: 23
- in vitro phosphorylation, 1 uM peptide (% of best substrate) [30]: 51
- in vitro phosphorylation, 10 uM peptide (% of best substrate) [30]: 51
- in vitro phosphorylation (% of best substrate) [31]: 80
- in vitro phosphorylation, 1 uM peptide (% of best substrate) [32]: 46
- in vitro phosphorylation, 10 uM peptide (% of best substrate) [32]: 45
